Assay results taken from the DeepSol protein solubility set.

Test: soluble on expression in E. coli; label from the status in PepcDB or PDB records

| Sequence | soluble on expression in E. coli |
| --- | --- |
| MNLTVSHLDKLRLPLLHKIYKENYPSGKPKGKEEIIVIEGDKKILGAMRIKTYEECHFLTGMMIIKERRGESLGSQLLFKLNEFLSLEHCYCFCEPQLSEFYLKNDFIHIDKKNIPHVLKSKHDRYTNTGKELDILLYKKTNN | not soluble |
| MNQPFLSVVIATFNVAEVLRECLHSLASQTFRDFEVVIQDGASTDGTLAVAQEAAGRLPRLSLASVADSGIYDAWNRALPRVTGDWVLFLGSDDTLAGPDVLAQCARRLADLPPQVLYACGDALEVYPDGSSRAVTCTAEGATRRMADHIPFCHSSLWHRACLFEARHFDATLRIAADYDLICRTWPHDGVGHTLGITVTHMGVGGVSSSPAHRLRTQWELVRVAARHGHGAFSRRRLVPLCKAVGLWVLCRLAGRRASVMLDRLRVMRGLPPCWTTADPARVGGRDSARGDALEHHHHHH | not soluble |
| MGSDKIHHHHHHMKFTDIEYFDKLSELESFSKTAIFFNVSQPTISFAIQRLENEMKKTLINRNQSHGEISLTEAGKVFEKHAKKILQEVVAAHEEIDRMNQPTIEFGLPQIIGNYYLPKLVKHFVGNPFFQNVATNEAGSNLLLGALKNRRLDLAIISSVEPVKIEGLETIEIDRKKYSIVVNKDNPLAKQKKVSFEDLADEKFVSLKEGNVHPIAFRKLEETYNVYPKIIYETPDINILKKMIAEKTGIGFIVEIAVEKQDNLATLELSNEKVPEFIISFVYKKDLQIPGIKRIVEELRNNSVFDQDR | not soluble |
| SLATRRPMSIAEPDTAVSTASFMTAWEFPQGDDSAETPTTPKALQFQEPEYIHIPWDHNTDIAPDLMDLCHVVDDRTKAGKRVLIHCQQGASRSASLIIAYGLFQRPELTVNDAYYAAQAKSQWISPNMKLMYSLQDFQKEVSTKRTAQPSNREG | not soluble |
| GETSVPPGSALVGPSCVMDDFRDPQRWKECAKQGKMPCYFDLIEENVYLTERKKNKSHRDIKRMQCECTPLSKDERAQGEIACGEDCLNRLLMIECSSRCPNGDYCSNRRFQRKQHADVEVILTEKKGWGLRAAKDLPSNTFVLEYCGEVLDHKEFKARVKEYARNKNIHYYFMALKNDEIIDATQKGNCSRFMNHSCEPNCETQKWTVNGQLRVGFFTTKLVPSGSELTFDYQFQRYGKEAQKCFCGSANCRGYLGGENRVSIRAAGGKMKKERSRK | soluble |
| MGSDKIHHHHHHMSYTTNKQPQGYPYFVTSKLREDMIGELVAINDYSFIISNSNIKEINDVLYHIRQEEHNHYGMLLELLRKYDPMEMDAYLRVIAHTTLTPVKEYLTVNSGITDKLLLNYLREGAKGELEAIILYEQHLAEIPYSDIRETLQKIVYEEKEHLEELTLVLINYDKDKYGSIKK | not soluble |
| MGHHHHHHSHMISAHRNLHLPGSSNSPASAFLSSWDYRHVPPCPANVVFLVEMGFLHVGQAGLELPTSDDPPTLASQSAGITGVSHRTWQEFASLTVSQAVLRMLVWGPQFENHCSKLLMASEGDSSLVFFLYPLSNLN | not soluble |
| METPQDSRQSIQKPPSPAAEEDKEEQPGGNAVVSGAPEERIDKKELVLNWLAQGEFDQGEGAQGEVAGGEQAQEEPAPLSPAQEATGGEEEGENKEGEMEGRHAGDGASSSEDDSILEEGGENIDQQPPQQEAASPDSIRNPHVLNRLAQLRYRRTRFTHFQLHDLERLFQETRYPSLRARRDLARWMGVDECDVQNWFRMRRALFQRNRRVLMFCELPPLPQSDSP | soluble |
| MGSDKIHHHHHHMDADELELKGHLKKLKKEELLRRKQLKESNLQKRELEYNNASKNTSIYISGLPTDKTTKEGLTEQFCKYGMIRTNRDGEPLCKLYVNDKGAFKGDALITYSKEESVTLAIEMMNESIFLGKQIRVERAQFQNKEGDNMHGKENDLKEFNGPEPPIKRLKKAKSEGEGEVIDYNDDESLAKADRTVIFANVFNIYKSYTNDDINDIQEDLLEGCEEIGQVDSISVSPNKGEATVVFKNNKVALQCCKIMTGRYFDGQKLLAFISGDENTSSTSDKNEDSEVEDDLI | not soluble |
